Experimental data as given in the RNAGym collection of RNA variant scans (doi:10.1093/nar/gkz1192).

B1: CPEB3 Ribozyme (parent)
chain: UAACAGGGGGCCACAGCAGAAGCGUUCACGUCGCAGCCCCUGUCAGAUUCUGGUGAAUCUGCGAAUUCUGCUGUAUAUCUC

Variants of: B1
Test: self-cleavage, relative activity (ratio to wild type); higher = more cleavage; in vitro, sequencing
Method in brief: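 Relative activity compares each variant's cleaved/total read fraction with that of the unmutated ribozyme. To get these fractions, barcoded CPEB3 ribozyme libraries from rounds of error-prone PCR were transcribed with T7 RNA polymerase for 5 hours at 37°C and then given 15 min of DNase I treatment before EDTA was added. The RNAs were reverse transcribed with template switching and sequenced on Illumina, and DNA sequencing linked barcodes to variants. A minimum of 5 reads applied, and three batches were averaged.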

Variant | self-cleavage
A5C U41G | 0.35
A5C U43A | 1.13
A5C U43C | 0.57
A5C U43G | 0.38
A5C U48C | 0.94
A5C U49C | 0.54
A5C U51C | 0.6
A5C U54C | 1.09
A5C U54G | 0.81
A5C U58A | 0.49
A5C U58C | 0.58
A5C U60A | 0.64
A5C U60C | 0.64
A5C U60G | 0.67
A5C U66C | 0.54
A5C U67A | 0.48
A5C U67C | 0.22
A5C U67G | 0.27
A5C U69A | 0.67
A5C U69C | 0.59
A5C U69G | 0.67
A5C U72A | 0.98
A5C U72C | 1.09
A5C U74C | 1.19

Variant | self-cleavage
A5C U78C | 0.89
A5C U80A | 1.19
A5C U80C | 1.05
A5G | 0.74
A5G A13C | 0.76
A5G A13G | 0.56
A5G A13U | 0.98
A5G A15C | 0.83
A5G A15G | 0.6
A5G A15U | 0.61
A5G A18C | 0.48
A5G A18G | 0.5
A5G A18U | 0.33
A5G A20C | 0.58
A5G A20G | 0.54
A5G A20U | 0.37
A5G A21C | 0.39
A5G A21G | 0.43
A5G A21U | 0.33
A5G A28C | 0.61
A5G A28G | 0.48
A5G A28U | 0.55
A5G A35C | 0.85
A5G A35G | 1.18

Variant | self-cleavage
A5G A35U | 0.36
A5G A45C | 0.42
A5G A45G | 0.63
A5G A45U | 0.36
A5G A47C | 0.59
A5G A47G | 0.65
A5G A47U | 0.34
A5G A56G | 0.39
A5G A56U | 0.43
A5G A57C | 0.28
A5G A57G | 0.64
A5G A57U | 1.04
A5G A64G | 0.58
A5G A64U | 0.35
A5G A65C | 0.25
A5G A65G | 0.39
A5G A65U | 0.19
A5G A75C | 0.57
A5G A75G | 0.49
A5G A75U | 0.83
A5G A77G | 0.71
A5G A77U | 0.78
A5G C11G | 0.5
A5G C12A | 0.4

Variant | self-cleavage
A5G C12U | 1.12
A5G C14U | 0.8
A5G C17A | 0.3
A5G C17U | 0.47
A5G C23G | 0.61
A5G C23U | 0.36
A5G C27A | 0.44
A5G C27U | 0.13
A5G C29G | 0.57
A5G C29U | 0.26
A5G C32A | 0.28
A5G C32G | 0.39
A5G C32U | 0.48
A5G C34G | 0.52
A5G C37U | 0.63
A5G C38A | 0.44
A5G C38G | 0.37
A5G C38U | 0.46
A5G C39A | 0.39
A5G C39U | 0.67
A5G C40A | 0.26
A5G C40G | 0.22
A5G C40U | 0.27
A5G C44U | 0.43

Variant | self-cleavage
A5G C50U | 0.5
A5G C59A | 0.2
A5G C59U | 0.65
A5G C62A | 0.22
A5G C62G | 0.14
A5G C62U | 0.35
A5G C68A | 0.46
A5G C79A | 1.01
A5G C79U | 0.92
A5G C81A | 1.1
A5G G6A | 0.29
A5G G6U | 0.23
A5G G7A | 0.6
A5G G7C | 0.5
A5G G7U | 0.39
A5G G8A | 0.23
A5G G8U | 0.46
A5G G9A | 0.39
A5G G10U | 0.39
A5G G16A | 0.57
A5G G16U | 0.54
A5G G19A | 0.53
A5G G19C | 0.41
A5G G19U | 0.45

Variant | self-cleavage
A5G G22A | 0.24
A5G G22C | 0.34
A5G G24C | 0.89
A5G G24U | 0.24
A5G G30A | 0.51
A5G G30U | 0.11
A5G G33A | 0.24
A5G G33C | 0.38
A5G G33U | 0.43
A5G G36A | 0.29
A5G G36U | 0.72
A5G G42A | 0.4
A5G G42C | 0.49
A5G G46U | 0.4
A5G G52A | 1
A5G G52U | 0.73
A5G G53A | 0.88
A5G G53C | 0.8
A5G G53U | 1.03
A5G G55A | 0.37
A5G G55C | 0.65
A5G G55U | 0.26
A5G G61A | 0.49
A5G G63A | 0.61

Variant | self-cleavage
A5G G63C | 0.5
A5G G63U | 0.95
A5G G70A | 0.32
A5G G70C | 0.25
A5G G70U | 0.41
A5G G73A | 1.17
A5G G73C | 1.25
A5G G73U | 1.17
A5G U25A | 0.42
A5G U25C | 0.39
A5G U25G | 0.55
A5G U26A | 0.56
A5G U26C | 0.44
A5G U26G | 0.55
A5G U31A | 0.41
A5G U31C | 0.48
A5G U31G | 0.47
A5G U41A | 0.32
A5G U41C | 0.5
A5G U41G | 0.28
A5G U43A | 0.84
A5G U43C | 0.43
A5G U43G | 0.3
